Data reported in patent US6548634B1, “Synthetic peptides having FGF receptor affinity” (priority 1998, dated 2003).

T1: FGFR1c extracellular domain-IgG fusion protein (Homo sapiens, UniProt P11362)
T1 construct: human FGFR Ic (residues 1-377); made in house
T1 sequence (P11362 22-377): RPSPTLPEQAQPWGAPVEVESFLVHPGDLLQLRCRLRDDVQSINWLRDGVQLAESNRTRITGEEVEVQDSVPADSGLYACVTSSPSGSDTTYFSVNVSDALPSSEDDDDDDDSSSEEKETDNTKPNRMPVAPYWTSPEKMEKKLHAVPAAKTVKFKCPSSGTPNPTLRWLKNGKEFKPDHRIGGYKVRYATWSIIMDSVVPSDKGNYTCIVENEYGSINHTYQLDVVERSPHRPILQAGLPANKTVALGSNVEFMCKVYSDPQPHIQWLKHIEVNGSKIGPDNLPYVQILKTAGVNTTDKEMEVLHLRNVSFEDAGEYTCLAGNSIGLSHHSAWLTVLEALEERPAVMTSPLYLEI

T2: FGFR1c ECD (Homo sapiens, UniProt P11362)
T2 construct: human FGFR Ic (residues 1-377); made in house
T2 sequence (P11362 22-377): T1 sequence (P11362 22-377)

B1: C19jun: C19 sequence fused via flexible linker to human c-jun leucine zipper (residues 276-314) flanked by cysteines, polyhistidine tag; SEQ ID NO:41 (protein)
chain: MAESGDDYCVLVFTDSAWTKICDWSHFRNGPGGGSGGGSGGGSGGGSGGGSRCGGRIARLEEKVKTLKAQNSELASTANMLREQVAQLKQKVMNHGGCGGSGGHHHHHH
modifications: SyArtificial Sequence

Experiments:
[1] = biological target: T1, FGFR1c extracellular domain-IgG fusion protein; experiment: Eu-labeled FGFR-IgG displacement from immobilized phagemid; type: binding; conditions: phage-displayed peptide, FIG. 7, read-out: IC50, displacement of Europium-labeled FGFR-IgG by unlabeled FGFR-IgG
Method: The immobilization of phagemid using antibodies, followed by probing with selected ligand in an ELISA format has been reported previously (Valadon, P. & Scharff, M. D., 1996 J. Immunol. Methods 197, 171-179). We developed a more sensitive detection method using Europium chelate-conjugated target receptor.
Nunc Maxisorp 96-well plates were coated with […] anti-M13 antibody in […] 50 mM Na2CO3 pH 9.6 and blocked using the conditions described in Example 2. Phagemid (˜10^11 cfu) were applied to wells in binding buffer for 1 h and washed 6 times with PBS, 0.05% Tween 20, and 2 times with Delphia Wash Buffer (E&G Wallac). Serial dilutions of unlabeled FGFR-IgG were added along with a constant amount (500 pM−2.5 nM) of Europium-labeled FGFR-IgG in Delphia Assay Buffer (prepared according to instructions from E&G Wallac), and reactions allowed to incubate for 2 h. Wells were washed 8× in Delphia Wash Buffer, treated with 100 μL of Delphia Enhancer Solution and fluorescence measured. IC50 values were determined from four-parameter fits to displacement plots.

Swiss 3T3 fibroblasts = experiment: BrdU incorporation (mitogenesis) in Swiss 3T3 fibroblasts; type: cell-based
Method: 6×Histidine-tagged Clone 19-jun protein (FIG. 1A) was expressed in bacteria and purified by metal affinity chromatography as described in Example 5. Assay of BrdU incorporation, a measure of entry of cells into S-phase and therefore of mitogenesis, was performed according to manufacturers instructions (Cell proliferation ELISA, BrdU, Cat. No. 1-647-229, Boehringer-Mannheim, Indianapolis, Ind.). Briefly, 1×10^4 Swiss 3T3 cells per well were plated on gelatin-coated 96-well microtiter plates in complete media (DMEM, 10% FCS, antibiotics), incubated 24 hours, and the media changed to quiescent media for an addition 24 hours (DMEM containing 0.5 mg/ml bovine serum albumin, 1 μg/ml insulin, 5 μg/ml transferrin, antibiotics). The cells were then treated with bFGF or Clone 19-jun protein at the indicated concentrations in the presence of 15 U/ml heparin. 18 hours later, BrdU was added, the cells incubated an additional 4 hours, and assayed as described. […] Heparin alone had no effect, nor did a control protein expressed and purified in the same manner in which the C19 sequence was deleted.

FGFR = FGFR autophosphorylation in Swiss 3T3 cells (anti-FGFR IP, anti-phosphotyrosine blot); type: cell-based; conditions: 1.0 nM bFGF or 50 nM C19jun, 15 U/ml heparin, 15 minutes
Method: (§1) To determine whether C19jun could activate FGF receptors in vivo, Swiss 3T3 cells were treated with basic FGF (bFGF) or purified C19jun protein. Cell extracts were then immunoprecipitated with anti-FGFR antibodies, analyzed by SDS-PAGE and immunoblotted with anti-phosphotyrosine antibodies. Extracts from bFGF and C19jun-stimulated 293 cells expressing FGFR1c were also immunoblotted with phospho-MAP Kinase-specific antibodies.
(§2) Swiss 3T3 fibroblasts, or 293 cells expressing full-length FGFRIc were incubated in quiescing media (DMEM, 1 μg/ml insulin, 5 μg/ml transferrin, 0.5 mg/ml BSA) for 24-48 hrs, and then stimulated with 1.0 nM bFGF or 50 nM refolded C19jun protein in the presence of 15 U/ml heparin for 15 minutes at 37° C. The cells were lysed and aliquots of lysate containing equal amounts of total protein were either analyzed directly by immunoblotting with phospho-MAPKspecific antibodies and anti-total MAPK antisera (New England Biolabs) or immunoprecipitated with anti-FGFR antisera and immunoblotted with anti-phosphotyrosine antibodies (Upstate Biotechnology, Inc.). Both bFGF and C19jun induced FGFR autophosphorylation and MAP kinase phosphorylation.

[2] = tested on: 293 cells expressing full-length FGFR1c; experiment: MAP kinase phosphorylation in 293 cells expressing FGFR1c; type: cell-based; conditions: 1.0 nM bFGF or 50 nM C19jun, 15 U/ml heparin, 15 minutes
Method: as §1, §2

PC12 cells = experiment: PC12 cell neurite outgrowth; type: cell-based; conditions: for neurite outgrowth / PC12 cell differentiation: 1 nM bFGF or 2 nM C19-jun, 15 U/ml heparin, 4 days
Method: 1×10^4 PC12 cells per well were plated on mouse laminin-and-poly-L-lysine-coated 24-well plates in 1 ml of media (RPMI 1640, 10% horse serum, 5% FCS, antibiotics) and stimulated with 1 nM bFGF or 2 nM C19-jun protein in the presence of 15 U/ml heparin for 4 days.

[3] = tested on: L6 myoblast cell lines stably expressing FGFR1c; experiment: c-fos mRNA expression in L6 myoblasts stably expressing FGFR1c; type: cell-based
control L6 cells = experiment: c-fos mRNA expression in control L6 cells that do not express FGFR; type: cell-based
FGFR1c ECD = biological target: T2, FGFR1c ECD; experiment: BIAcore real-time kinetic analysis on immobilized FGFR1c ECD; type: binding; conditions: in vitro, absence of heparin
Method: Apparent affinities for immobilized FGFR1c ECD were determined using BIAcore real-time kinetic analysis in the absence of heparin.
Protein representing the linker segments and c-jun leucine zipper without the C19 sequence (FIG. 2) was expressed, purified, and characterized as for C19jun. C19 peptide with an intrapeptide disulfide bond was synthesized, purified by HPLC, and characterized by mass spectroscopy. C19junΔhep protein was prepared by changing human c-jun residues Arg276, Arg279, Lys285, and Lys288 in the leucine zipper domain to glutamines. Expression, purification, and characterization was as for C19jun. […] The extracellular ligand-binding domain of human FGFR Ic (residues 1-377) and human erythropoietin receptor (residues 1-250) were fused to the Fc region of human IgG1, expressed in baculovirus and purified by protein A affinity chromatography. […] PDGF receptor Fc fusion protein was from R&D Systems.

Swiss 3T3 cells [4] = experiment: Swiss 3T3 proliferation, WST-1 long term assay; type: cell-based; conditions: WST-1, 4 successive days, 15 U/ml heparin, FIG. 4
Method: Swiss 3T3 cells were plated on gelatin-coated 96-well microtiter plates in quiescent media containing the indicated concentrations of bFGF or C19-jun protein and 15 U/ml heparin and cell number estimated on each of 4 successive days by the WST-1 assay as per manufacturers instructions (Cell proliferation Reagent WST-1, no. 1644807, Boehringer-Mannheim).

human endothelial cells = experiment: Proliferation of human endothelial cells; type: cell-based
[5] = Binding to heparin agarose beads
Swiss 3T3 cells [6] = experiment: Swiss 3T3 mitogenesis with soluble receptor ECD competitors; type: cell-based
Method: To further examine the specificity of C19jun for FGFR, Swiss 3T3 cells were stimulated with C19jun in the presence of protein representing the soluble extracellular binding domain (ECD) of various receptors used as binding competitors. The mitogenic activity of C19jun was abolished by pre-incubation of the fusion protein with excess FGFR1c ECD, but was unaffected by incubation with identical concentrations of the closely related PDGF receptor ECD or with erythropoietin receptor ECD. […] Similar results were observed when phosphorylation of MAPK was analyzed in these cells.
Protein representing the linker segments and c-jun leucine zipper without the C19 sequence (FIG. 2) was expressed, purified, and characterized as for C19jun. C19 peptide with an intrapeptide disulfide bond was synthesized, purified by HPLC, and characterized by mass spectroscopy. C19junΔhep protein was prepared by changing human c-jun residues Arg276, Arg279, Lys285, and Lys288 in the leucine zipper domain to glutamines. Expression, purification, and characterization was as for C19jun. […] The extracellular ligand-binding domain of human FGFR Ic (residues 1-377) and human erythropoietin receptor (residues 1-250) were fused to the Fc region of human IgG1, expressed in baculovirus and purified by protein A affinity chromatography. Activity of the fusion proteins was confirmed by binding of [^125I]-labeled ligands. PDGF receptor Fc fusion protein was from R&D Systems.

[7] = Swiss 3T3, identical concentration

Molecule	IC50 [1] [nM]	EC50 (Swiss 3T3 fibroblasts; Swiss 3T3, 15 U/ml heparin, FIG. 3, read-out: EC50 stimulation of mitogenesis (BrdU incorporation)) [nM]	FGFR autophosphorylation (FGFR)	MAP kinase phosphorylation [2]	neurite outgrowth / PC12 cell differentiation (PC12 cells)	c-fos mRNA expression in FGFR-expressing L6 cells [3]	c-fos mRNA expression in control L6 cells (control L6 cells)	heparin dependence of mitogenic activity (Swiss 3T3 fibroblasts; Swiss 3T3, presence and absence of heparin)	binding to immobilized FGFR ECD (FGFR1c ECD)	Swiss 3T3 proliferation in long term assay (Swiss 3T3 cells [4])	Swiss 3T3 proliferation in long term assay (Swiss 3T3 cells [4]; listed as C19-jun)	proliferation of human endothelial cells (human endothelial cells)	heparin dependence of morphogenic activity on PC12 cells (PC12 cells)	heparin binding [5]	mitogenic activity after pre-incubation with excess FGFR1c ECD (Swiss 3T3 cells [6]; Swiss 3T3)	mitogenic activity after incubation with PDGF receptor ECD (Swiss 3T3 cells [6]; [7])	mitogenic activity after incubation with erythropoietin receptor ECD (Swiss 3T3 cells [6]; [7])
TLVCDTVLEGQWRVCNWE [F12 clone]	~12																
bFGF: basic fibroblast growth factor, natural FGF receptor ligand used as comparator [reference compound]		0.14	induced	induced	appearance of neurite extensions	stimulated c-fos mRNA expression	neither was active										
B1			induced	induced	induces PC12 cell differentiation as well or better than bFGF	stimulated c-fos mRNA expression	neither was active	required for optimal mitogenic activity	high affinity and specificity	equal or greater extent than 1 nM bFGF	as well or better than bFGF	stimulated the proliferation	required for the morphogenic activity	quantitatively and specifically bound to heparin agarose beads	abolished	unaffected	unaffected
